Here are results for one sequence from paper PMC11059090.

The test system of data set [1] is ALEXA-594-labeled rabbit anti-human IgG Fc-specific monoclonal (594-RAH) (rabbit). Put plainly: FRET titration. The following applies: apparent Kd, ITC: PBS (10 mM phosphate, 2.7 mM KCl, 137 mM NaCl, pH 7.4), 25 C, FRET: Ex 550 nm, Em 620/670 nm, titration buffer not stated.
In data set [2] the test system is rabbit anti-human IgG Fc-specific monoclonal (RAH) (rabbit). The experiment in a line: ITC. The following applies: unlabeled IgG; 80 uM aptamer into 2.5 uM IgG; ITC: PBS (10 mM phosphate, 2.7 mM KCl, 137 mM NaCl, pH 7.4), 25 C; FRET: Ex 550 nm, Em 620/670 nm, titration buffer not stated.
For data set [3], the system named is purified whole IgG from rabbit serum (polyclonal) (rabbit). Put plainly: ITC. The note with it: unlabeled IgG; 80 uM aptamer into 2.5 uM IgG; ITC: PBS (10 mM phosphate, 2.7 mM KCl, 137 mM NaCl, pH 7.4), 25 C; FRET: Ex 550 nm, Em 620/670 nm, titration buffer not stated.

Consider “CCAACCACACATCCTTCCATCGACATGGACCCACCGTTCC [AptaShield DNA aptamer]”, for which the Kd came to 0.095 µM in data set [1] (RAH-594 titrated into 200 nM aptamer), 0.0445 µM in data set [1] (aptamer titrated into 200 nM RAH-594), 0.224 µM in data set [2] and 0.89 µM in data set [3].
